The data set is described as follows: soluble on expression in E. coli; label from the status in PepcDB or PDB records.
For “MFVRLFYTLRKYGVPVTTRELIDLNRAVAEGLVFADQDEFYQLAKTILVKDERFFDKFDRAIKDYFEGIETFDLDELLKQVQKIPKEWLDLELLEKHLTPEQREALQKAGSLEELMKMLEERLREQHKKHQGGNRMIGTGGTSPFGAFGDHPEGVRIGGPGRKRSAVKVWEQRKYQNLDDDQILGTRQMQLALRRLRKFARQGAADELDVDNTIRETAKQGILNVQMVPERRNRIKVLMLFDVGGSMDSHIAQCEKLFSAAKTEFKTLEYFYFHNCLYDYVWKDNHRRQASRLETWDLFHKYGRDYRVIVVGDASMAPYELRSAGGSVEYMNDEAGEIWLRRLRQHFDKTAWLNPEEEGYWKYTQTIGLIQQLFENHMYPMSLKGIEDMTRYLS”, the “soluble on expression in E. coli” value is “not soluble”.

Regarding “MAHHHHHHMNNSLLGSLFAKRTKEPRDLDAAEMPQLRTGRSRASSESSTTSARSQRDGKKKKQQRRHPGKRRDAQDSDSGDEGVRQHSTPLTSPAPHPRASSVGSEFSDIEENPRPRNQRRSSGKVLRSSGTVAGAEKAKADERPPMAHSTPEVLPGADNLATNPLGEAGAGGEGAAGGQRHLPPMSQSAPMTSGRGSAAETVAVLRKEGSIEASQQQASTLTAGQLCGVAANSTVSFSGDDAAVLGASLNNTCSAATTISHHPTQPLAPAPGSSSGSPEDHKGSPPRACSSAEEGKKCDNRDSNTRRAVSGKDGEEMTHVDTEKQQPHDRSGDTPDRDVGASGKAWEGQRDATSAVEKDTHPLLDTASLRHTLDSFGSRPSSKLRRRSLGIGGSSKCVPAMLDRSRDGDGTSMTPSDGDEILKGLSFFNAASGEFVLTNHDIHSLEAFLFGTRALVVHINDLQKALLEMQHATDLARLL”, the “soluble on expression in E. coli” value was “not soluble”.

Regarding “MKIGFIGVGKMASAIITGLKKTDFELIISDSSLKAGQDKAEALGVAVAQSHQELVDEVDLLVLGVKPQVLASVLNPLILTKPILSMAAGTSLEYLDKLSQADLPIIRIMPNLNAKILQSSTAICRNDKVSDQLFAIAKQITDSFGTTFEIAEKDFDTFTALAGSSPAYIALFIEAMSKAGLKHGFPKDLAFKIVSQTVLATTSNLIQGQEKPNDLIDKVSSPGGTTIAGLLDLEKTGFTASTISAIDATIDKSKNMLEHHHHHH”, the “soluble on expression in E. coli” value was “not soluble”.

As to “MKMYADERREHIYSYIKSHKRATVKQLSDYLSVTEATVRSDLRRLESENKLTRTHGGAKVTENIGSKFNFSYRLTQKHGEKYKISKSALKKIKPQQCIMIDASSTTYELAKLLAETTMELTIITNGLENAVLLKENPHLTVLVVGGFVSQDSNAITGNIDSQILEMYHIDYFFLSANGFTLENGLTDFSLPEVQLKKQMVQESENVIALIDKSKFGVSSTLSFAKISDINEVITDEKPEHKWLKHVPFSVTVAQLEHHHHHH”, the “soluble on expression in E. coli” value was “soluble”.

Regarding “MQAKLFMIPWLIELVISQRAPSPPNPTPSAQVLTNDLLVDAHRRHFLDMLRRQQQINDALLLNNALLHPHPLPPLHIPANPAIQELNLPPAPPLFNPFIPAQVANQGPTSKLGTYGKDDEPEKKSEELKETPEEKEGTVGAPVRTDLVKKTLAGVKTVSIQKKGDVTGETLTTMEVVAPTTSTISPEDLEVVQLFKKLNLSKEETKSIVERVEQVVREKLMSKMDTSSTTTEVTTVVTTPSTTTTTTSTTQAPTTTTKEFIEEEIEEEDYSVATTAPPPQMHIRSEENLILQRNNLKHHPIKLQEKKLPESLESEEISQGSIKTSLTHLPIFVANEEEDVASLNPKSALHKRILIASQDREKESDRDLLVDFATGAPLDLSEPDVTKSKYEASPVATSPATLAPAQVTTRPVAPPRLNYHERTDFERLASDYRRRLENTGDINKILQKISENAYISLVERGGRRRLFGS”, the “soluble on expression in E. coli” value is “not soluble”.

Turning to “MSLQLRSRAAFKLEFLLDRYRVVRKGDAVIEIGSSPGGWTQVLNSLARKIISIDLQEMEEIAGVRFIRCDIFKETIFDDIDRALREEGIEKVDDVVSDAMAKVSGIPSRDHAVSYQIGQRVMEIAVRYLRNGGNVLLKQFQGDMTNDFIAIWRKNFSSYKISKPPASRGSSSEIYIMFFGFKAEGHHHHHH”, the “soluble on expression in E. coli” value is reported as “soluble”.

“MNDTAGELEFVPLAANDDETVGQWLDLMALAAETGPRAAPPCNVDMVGSLRFAPPATALDDWVVRSGGRVVGALRLALPDGAPTARVDQLLVHPGRRRRGIGRALWAHARELARKHDRTTLTATVVESLPSGPAQDPGPAAFAAAMGAHRSDIPAGTHQWLDLDRHDPLADGVPAVPAGYSLVTWGTITPDEYAVPVSELELSLGAGPVDRAAQEVRTSYARQFETMRVGRGRRAYHTGAVHDATGALAGYTSVSKTTGNPAYALQGMTVVHREHRGHALGTLLKLANLEYVLRHEPEVRLVETANAEDNHPMIAVNAALGFEPYDRWVFWTAEAGPSD”: the “soluble on expression in E. coli” value is recorded as “soluble”.

As for “PHDFPHFDKERYARTTRKVIARMNQELASHEQIKGVLMIKEPWSIENGVLTPTLKIKRHVLEQKYHELGHNWPKDELVLWEEDL”, the “soluble on expression in E. coli” value is “not soluble”.

On to “MGSDKIHHHHHHLAQLYFYYSSMNAGKSTSLLQSSYNYRERGMNTLVMTASIDDRYGKGKVASRIGIETEAQVFSSQDDLTQMISDVHQATPLSCVLVDECQFLSKEQVKQLTHVVDNIDIPVLCYGLRTDFQGELFSGSHYLLAWADKLVELKTICHCGRKANMVVRLDGDGKVMREGEQVAIGGNESYESVCRKHFREFIWD”, for which the “soluble on expression in E. coli” value is given as “not soluble”.

Turning to “MSLGTLWWNGTFFTMVHEGDQVEAVFTEDGKIVAIGTAEELRQRYSTRINQEMNCDGAYVYPGFVDSHLHMIGHGEKLLRLDLSTVMNAEDMREKLMERVALTEEGDWVTAEGWNENNFPDQKIFHRNELDEIAPNHPMILTRVCRHAILVNSKALQLAGISKDTTDPPGGRIVRDELGEPTGYLLDTAQELVKRVAPSVSAAYLERALAAAVDDMVAKGLVGGHTEDLGYYLGFNQTFATFQRVIDGNTRRFRAHLLVHHEVIDDMIKAGYCKGPVGEWLEFGAMKIFADGAFGGRTALLSEPYCDAPTTSGVAIHTQEQLTNLIKKARQYKLPVAIHTIGDEALRMAITSIEAHPVTEGRDRLIHTQVTPPSLVERMKKLKVILDIQPAFVPADFPWVEERLGNERLSYSFAWKTLLRSGMALAGGSDAPIEEVDPLYGIYAAVARKKPTDQHEGYLPEEKLTRYEALQLYTTGSAYAIEREHERGNIRPGYVADFTMLNRNLFTCREEELLTTRVEKTVIGEAIVFQAKGIITITTDPNSSSVDKLAAALEHHHHHH”, the “soluble on expression in E. coli” value was “soluble”.

On to “MGSDKIHHHHHHMTLPATITHQEKLLTVDTTAHPFLKALGGHEGTDIFPLFMDPYNGLMVMRASFAPGLTLPLHFHTGTVHMYTISGCWYYTEYPGQKQTAGCYLYEPGGSIHQFNTPRDNEGQTEVIFMLSGCNVNFTQDGTYLGLSDAGVIKNWVDRAIREQDNGLRYIAAAVPTYAA”, for which the “soluble on expression in E. coli” value was “not soluble”.

“MSLDLGTTKYIIYAELIADGYVEKHDVIGAIFGQTEGLLGDELDLRELQKTGRVGRIDVELTNINGKSIAKITVPSSLDRIETSILAATLETIDRVGPCVATVKVIDIEDIRKKKREYIVERAKEILKQLMSNIDVNTIIEEVKESVRMGEIIEYGPERLPAGPAVDEGHHHHHH”: the “soluble on expression in E. coli” value is “soluble”.

As for “SGTNDAEDCCLSVTQKPIPGYIVRNFHYLLIKDGCRVPAVVFTTLRGRQLCAPPDQPWVERIIQRLQRTSAKMKRRSS”, the “soluble on expression in E. coli” value is listed as “soluble”.

Turning to “MQFTDGGKEVELRLRLKTGEILSPKDISVDADGTSLAVKEKRNGLLITLLETNHLFEKIMPSETIWYIDEDQLVVNMKKVDGELKWPDIVESWESLTAGMMQLLKGASIYIVGDSTEINQKVSRELAVGLGYSPLDSKELLESFSKQTIDSWILAEGPDSVAEAESSVLESLSSHVRTVVSTLGGKHGAAGRADQWRHLYSGFTVWVSQTEATDEESAKEEARRSKQEREIGYSNADVVVKLQGWDPTHAKSVAQASLSALKQLIISDKGLPGNK”, the “soluble on expression in E. coli” value is “not soluble”.

For the sequence “MGSDKIHHHHHHMPSFKTYPLESIGYDEALRKQFRLVDEITRHFKGSEFLSRGDLGVVPGLNRPRYTKRVEEILAAYFHAEAAMLVRGAGTAAIRMALHSYLTAGQTLLVHDAPIYPTTQTSIEMMSLRTIRADFNDLNHQQLPESPDGILVQYTRQKPDDSYDMAKVLAFFKQRYPSVPIVTDDNYAVMKVHKIGVELGASLSCFSTFKLLGPEGIGCIVGDKSAIQKLRSANYSGGSQVQGHEAIDVLRGLTYAPVALAAQANVVTELVERLNGNEIPGISEAYVANAQSKVLLVEFNQPIAEKVLKYTNDLGAAPNPVGAESKYEIAPMFYRVSGTFKKFDPNLLKTTIRINPYRCGADTIMRILAESVEKVMA”, the “soluble on expression in E. coli” value is listed as “not soluble”.

For “PRVVFIDEQSGEYAVDAQDGQSLMEVATQNGVPGIVAECGGSCVCATCRIEIEDAWVEIVGEANPDENDLLQSTGEPMTAGTRLSCQVFIDPSMDGLIVRVPLPA”, the “soluble on expression in E. coli” value is listed as “soluble”.

In the case of “MCSSPTTLFLLFALVSTSYALLGVGRTQSVAVSGRVICNGQPASGVKLKLYEKESTFDVLLEEATSDANGQFRLSGSKTEISTIDPKLNIYHKCNYNGLCYKKIGITIPDNYVSSGKTPSKTYDIGTLNLANQYTGQTTDCIN”, the “soluble on expression in E. coli” value is listed as “not soluble”.

For “MSQFGATAIGIANIAMNGEVLDTWYPTPELVPASTSPSYSERLGAQDLPPKLLSLVRLDEDRLVEQVAVRTYIGDLDTPPIDAHDVFLRLHLLSHRLVRPLEINMDNAMSILSRVVWTNKGPCLPENFENIRMSLRNRGLIHVYGIDRLPRMVDYVVPTGVEITEAERVRLGAYLAEGTKVLREGYVSFNAGTLGAGRIEGRLYSGTVVGDNVDLGISASIVPDKPHAQLRVGANCVFGLGSAVMGINLGDNVRVGNNVVIDKETMVYFADRDITAAAAILDGQSDWQIHAESGRPEPVVRPT”, the “soluble on expression in E. coli” value was “soluble”.

For the sequence “AHHHHHHGSIILDNHFHVDPNHGLFLEAVKQFQRAGGTHLIVVYKTAHDYGFPGLKAEDFMKAMDFHIELVEKINRETQVKAYAVVGVHPAEFDYLARNKGLEFARNEVMKALEYAQKLCLEGKAVGIGEVGRPHYEVPQQIWEVSIEIMKYAMELAKDADCAVQLHTESFNEEKFRELGEYIREVGIKPYKVVKHFSPPLVNVAKEVGVFPSIIASKKNIEEAIKQGNRFLMETDYIDDKRRPGAVLGPKTVPKRTKEFLQRGIFTEEDVYKIHVENPKKVYGIEI”, the “soluble on expression in E. coli” value was “not soluble”.

In the case of “MGSDKIHHHHHHMKSQWECFLQNLGVWEGSFSNFSPEGTLLNDTSSRLCLEGLNNNQTVRLTLSRSGKDDVIREFRSVGGGLLFFENGSFSEGLIQLGPFSEFGGELAFVHENRRLRLVQLFDRNGHLNGLTLIREHLAGTPVAERPLLQINDLLGEWRGQAVTIYRDLRPPDIYSTTLKIQLDDAGRLMQSTSFGERTITSTATIKGSIVLFDQDPEKQVQVLLLPDGASATSPLKVQLRQPLFLEAGWLIQSDLRQRMIRSYNDKGEWVSLTLVTEERV”, the “soluble on expression in E. coli” value was “not soluble”.

For “MGSDKIHHHHHHMGKQQIWKNWWENHTCTPEHYYQPEQIDEVVEIIKSANLEQKQIKVIGSGRSWSDIPCTDGYMISLDKFNQVLDIDIEQKTVIVKSGIRIYQLVDILAKHGLALSSLGSICEQSIAGAISTGTHGNSLHQGGLASSILELELVNGIGEVIKCSKSENPDLFSAALIGLGAIGIITQVKIQCCNQFWLTETLQCWNIKDVLENLDTLKKNDYCRFWYTTTNKDAIVQTFSDSQILEKTGFIHFIKRIITQIFWFLWISWHDNPAEHDSQSFTRKDESQHILCYPRFFLKLYKLSFRMTKYCQNVLISEYGIPEEMASIAMNKILSLVDRGIIKGHLRFEVRFGAAEDVWLSTAYQRPTCYIQVLFEKKNFTSTQDQNDAFIQVENIIKNLAGRPHWAKDHLYTNDDLRSTYPRWQEFLQIRQQTDPQQCFTNSYLNKIFDDVRRTA”, the “soluble on expression in E. coli” value is “not soluble”.

The values above are taken from the DeepSol protein solubility set.
